Legend:
Type in all cases: physicochemical
[1] = Zinc sulphate addition to sodium caseinate solution, precipitation of proteins; details: 2% protein solution, pH 6.8
Method: We have compared the effect of zinc sulphate addition on the precipitation of proteins in sodium caseinate using our technology.
Upon addition of zinc sulphate to sodium caseinate solution (2% protein), not more than 5 mM of zinc could be added without gross precipitation of proteins at pH 6.8.
However, as exemplified with the concept of complex II, we could add 18 mM of zinc to the sodium caseinate (2% protein solution) without any precipitation of proteins.

[2] = Copper sulphate addition to sodium caseinate solution, precipitation; details: 2% protein
Method: The sodium caseinate solution (2% protein) precipitated upon addition of 1.5 mM copper as copper sulphate. Again using the concept of complex II, we could add 4 mM without noticeable precipitation at pH 6.8.

[3] = Effect of phosphorus addition on soluble protein, soluble iron, turbidity and appearance of sodium caseinate solution on iron addition; details: without the phosphorus, FIGS. 6 and 7
Method: FIGS. 3 to 5 illustrate the effect of adding phosphorus to the complex.
FIG. 5 illustrates the advantages of the invention, wherein an increase in turbidity indicates a reduction in stability due to the formation of small particulates/precipitates.
FIGS. 6 and 7 visually illustrate how addition of phosphorus improves the solubility and stability of the complex. Even when the iron is loaded up to 25 mM, the composition remains in solution. Without the phosphorus, the protein and/or iron precipitates even at lower levels of iron (5-10 mM).

Substance: sodium caseinate
- Zinc that could be added without precipitation of proteins [1]: not more than 5 mM
- Copper addition at which the solution precipitated [2]: 1.5 mM
- Iron level at which protein and/or iron precipitates [3]: 5 to 10 mM
